Test [1] addresses wild-type vaginolysin (VLY^wt) (Gardnerella vaginalis, UniProt B2YGA4 31-516). Put plainly: MST.
Test [2] concerns the target T1, wild-type intermedilysin (ILY^wt) (Streptococcus intermedius, UniProt Q9LCB8 34-532).
T1 sequence: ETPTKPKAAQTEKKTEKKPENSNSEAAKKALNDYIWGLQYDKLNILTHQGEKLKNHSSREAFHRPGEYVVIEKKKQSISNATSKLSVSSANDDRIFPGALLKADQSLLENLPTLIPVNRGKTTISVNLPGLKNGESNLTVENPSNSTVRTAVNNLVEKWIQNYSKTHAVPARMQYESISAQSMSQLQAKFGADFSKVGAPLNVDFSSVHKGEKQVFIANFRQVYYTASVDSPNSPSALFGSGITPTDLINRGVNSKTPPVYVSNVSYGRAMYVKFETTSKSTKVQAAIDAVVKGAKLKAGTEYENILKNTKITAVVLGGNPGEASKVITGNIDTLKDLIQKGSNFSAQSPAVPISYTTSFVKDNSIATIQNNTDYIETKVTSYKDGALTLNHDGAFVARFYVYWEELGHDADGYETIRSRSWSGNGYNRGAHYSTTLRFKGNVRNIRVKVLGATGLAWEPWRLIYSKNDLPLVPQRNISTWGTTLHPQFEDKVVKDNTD
The test is described as follows: MST.

B1: CD59 mutant D22A (CD59^D22A) (receptor, human)
chain: LQCYNCPNPTADCKTAVNCSSAFDACLITKAGLQVYNKCWKFEHCNFNDVTTRLRENELTYYCCKKDLCNFNEQLEN
modifications: Dylight 650 label (in the microscale thermophoresis only)
One may read the Kd as a measure of binding affinity in units of concentration. High values mean lower affinity, low ones higher affinity. In the case of B1, the Kd in test [1] stood at 779 nM; in test [2] it was 367 nM.
